Assay [1] has as its target T1, RGA (Arabidopsis DELLA protein), yeast two-hybrid prey in pGADT7 AD vector (Arabidopsis, UniProt Q9SLH3 1-587).
T1 construct: also called AtDELLA
T1 sequence (looked up): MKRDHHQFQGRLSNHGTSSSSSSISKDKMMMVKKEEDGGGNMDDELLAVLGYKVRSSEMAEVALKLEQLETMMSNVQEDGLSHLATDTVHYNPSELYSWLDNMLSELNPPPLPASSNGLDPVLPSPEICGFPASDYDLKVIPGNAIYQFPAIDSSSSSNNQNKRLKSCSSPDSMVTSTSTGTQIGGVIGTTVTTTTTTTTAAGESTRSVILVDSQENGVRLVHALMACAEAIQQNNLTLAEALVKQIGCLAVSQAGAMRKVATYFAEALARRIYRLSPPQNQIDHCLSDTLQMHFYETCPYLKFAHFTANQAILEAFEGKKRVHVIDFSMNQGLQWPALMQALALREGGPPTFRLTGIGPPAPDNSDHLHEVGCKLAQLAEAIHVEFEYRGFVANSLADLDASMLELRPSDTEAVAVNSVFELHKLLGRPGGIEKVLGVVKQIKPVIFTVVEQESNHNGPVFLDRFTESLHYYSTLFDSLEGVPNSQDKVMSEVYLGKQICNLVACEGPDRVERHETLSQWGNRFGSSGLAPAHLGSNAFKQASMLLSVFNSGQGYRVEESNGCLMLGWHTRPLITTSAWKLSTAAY
The experiment in a line: yeast two-hybrid Assay B (beta-galactosidase), GA4 dose response 10^-5 to 10^-9 M. The procedure:
Each AtGID1 was used as a bait while AtDELLA was a prey. GA₄ (10⁻⁵ M) was added to the medium. The bars indicates β-galactosidase activity when o-nitrophenol-β-D-galactopyranoside was used as a substrate (Assay B). The growth of each transformant in the defined medium for 2 days (Assay A) is shown beneath of each bar graph. The experiment was carried out in quadruplicate. The SD value shown in the figure was determined from three measurements. Panel B) depicts the dose response in AtGID1-RGA interaction in Assay B of Y2H. GA₄ (10⁻⁵ to 10⁻⁹ M) was added to the medium. The experiment was conducted in duplicates. The SD value shown in the figure was determined from three measurements. Panel C) depicts the results of an evaluation of the in vitro GA-binding potency of AtGID1 using AtDELLA. Left panel, 15 minutes after mixing AtGID1c (C), tritiated GA, with an excess amount of non-labeled GA (+) or without non-labeled GA (−). GAI (G) or RGA (R) was added, and then the GA-binding activity in each reaction mixture was measured according to the standard method. Recombinant protein originating from the vector (v) was used as a negative control. The experiment was carried out in duplicates. The SD value was determined from three measurements. Right panel, a profile of Western blotting for recombinant AtDELLA using an antibody to His tag. G, GAI; R, RGA; v, vector; M, molecular weight marker. […]

For assay [2], the target named is T2, RGL1 (Arabidopsis DELLA protein), yeast two-hybrid prey in pGADT7 AD vector (Arabidopsis, UniProt Q9C8Y3 1-511).
T2 construct: also called AtDELLA
T2 sequence (looked up): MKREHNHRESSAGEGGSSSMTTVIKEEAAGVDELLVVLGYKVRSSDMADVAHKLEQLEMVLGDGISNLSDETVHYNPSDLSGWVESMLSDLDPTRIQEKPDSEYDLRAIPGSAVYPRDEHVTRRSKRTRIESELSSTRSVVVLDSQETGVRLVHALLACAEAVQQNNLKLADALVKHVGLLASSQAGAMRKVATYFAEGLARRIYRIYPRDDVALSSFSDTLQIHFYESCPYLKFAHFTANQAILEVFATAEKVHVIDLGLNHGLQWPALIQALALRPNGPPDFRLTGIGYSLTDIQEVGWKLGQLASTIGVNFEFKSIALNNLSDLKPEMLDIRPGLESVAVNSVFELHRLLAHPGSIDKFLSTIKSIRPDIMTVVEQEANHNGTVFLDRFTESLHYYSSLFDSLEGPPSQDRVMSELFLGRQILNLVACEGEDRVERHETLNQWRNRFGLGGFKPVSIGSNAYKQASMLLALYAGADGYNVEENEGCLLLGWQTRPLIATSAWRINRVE
Briefly: yeast two-hybrid system. As to the method: Arabidopsis has five DELLA proteins (RGA, GAI, RGL1, RGL2, and RGL3; collectively designated AtDELLA; Fleet, C. M., and Sun, T.-P. (2005) Curr. Opin. Plant Biol., 8, 77-85; Dill, A., and Sun, T. (2001) Genetics, 159, 777-785); therefore, there are 15 possible combinations of GID1/DELLA proteins. To verify the positive interactions between AtGID1-AtDELLA, two experiments were conducted using the yeast two hybrid (Y2H) system. In the first experiment (Assay A), a viable colony assay using a defined medium in which only positive clones would survive was carried out. In the second experiment (Assay B), β-galactosidase activity was measured, as reporter gene product of AtGID1-AtDELLA interactions.
BD Matchmaker Two-hybrid System 3 (Clontech, Palo Alto, Calif., USA; now part of Takara Bio) was used in the Y2H experiments. After confirming the PCR products of the AtGID1 genes by sequencing, PCR products were cloned into pGBKT7 DNA-BD shuttle vector to construct bait plasmids. Likewise, the entire coding region of each AtDELLA gene (GAI including EcoRI and XhoI sites; RGA including BamHI and XhoI sites; RGL1 including SmaI and SacI sites; RGL2 including SmaI and ClaI sites; RGL3 including SmaI and XhoI sites on the ends) was cloned into pGADT7 AD vector. The S. cerevisiae AH109 (MATa) strain or Y187 (MATα) strain was used, and DNA-BD and AD vector cassettes were used as negative controls. The details of the method used for the yeast assay are as described in the manufacturer's instructions (Yeast Protocols Handbook #PT3024-1; http://www.clontech.com/). Experiments were carried out four times independently. Similar results were obtained each time.

B1: AtGID1b (At3g63010), yeast two-hybrid bait in pGBKT7 DNA-BD vector (receptor, not shown: small tags and cut ends)
chain: MAGGNEVNLNECKRIVPLNTWVLISNFKLAYKVLRRPDGSFNRDLAEFLDRKVPANSFPLDGVFSFDHVDSTTNLLTRIYQPASLLHQTRHGTLELTKPLSTTEIVPVLIFFHGGSFTHSSANSAIYDTFCRRLVTICGVVVVSVDYRRSPEHRYPCAYDDGWNALNWVKSRVWLQSGKDSNVYVYLAGDSSGGNIAHNVAVRATNEGVKVLGNILLHPMFGGQERTQSEKTLDGKYFVTIQDRDWYWRAYLPEGEDRDHPACNPFGPRGQSLKGVNFPKSLVVVAGLDLVQDWQLAYVDGLKKTGLEVNLLYLKQATIGFYFLPNNDHFHCLMEELNKFVHSIEDSQSKSSPVLLTP
notes: Bait fusion for the Y2H assays; also called Arabidopsis GID1
As to B1, in assay [1], the binding result is “binds”.

B2: AtGID1a (At3g05120), yeast two-hybrid bait in pGBKT7 DNA-BD vector (receptor, not shown: small tags and cut ends)
chain: MAASDEVNLIESRTVVPLNTWVLISNFKVAYNILRRPDGTFNRHLAEYLDRKVTANANPVDGVFSFDVLIDRRINLLSRVYRPAYADQEQPPSILDLEKPVDGDIVPVILFFHGGSFAHSSANSAIYDTLCRRLVGLCKCVVVSVNYRRAPENPYPCAYDDGWIALNWVNSRSWLKSKKDSKVHIFLAGDSSGGNIAHNVALRAGESGIDVLGNILLNPMFGGNERTESEKSLDGKYFVTVRDRDWYWKAFLPEGEDREHPACNPFSPRGKSLEGVSFPKSLVVVAGLDLIRDWQLAYAEGLKKAGQEVKLMHLEKATVGFYLLPNNNHFHNVMDEISAFVNAEC
notes: Bait fusion for the Y2H assays (BD Matchmaker Two-hybrid System 3); also called Arabidopsis GID1
Consider B2, for which, in assay [2], the binding result was “binds”.

The record behind these values is patent US20090031441A1 (NATIONAL UNIVERSITY CORPORATION NAGOYA UNIVERSITY, published 2009).
